Source: patent US20170189519A1

What was measured:
Assay in all cases: ELISA, coated CR6261, P. pastoris medium
Conditions in all cases: remark: other sources report otherwise
[1] = biological target: 182C6 (influenza A H1N1 A/Brisbane/59/2007)
[2] = biological target: 185G7 (influenza A H1N1 A/Brisbane/59/2007)
[3] = biological target: 251C8 (influenza A H1N1 A/Brisbane/59/2007)
[4] = biological target: 245C9 (influenza A H1N1 A/Brisbane/59/2007)
[5] = biological target: 182D3 (influenza A H1N1 A/Brisbane/59/2007)
[6] = biological target: 134A4 (influenza A H1N1 A/Brisbane/59/2007)
[7] = biological target: 182G8 (influenza A H1N1 A/Brisbane/59/2007)
[8] = biological target: 145E8 (influenza A H1N1 A/Brisbane/59/2007)
[9] = biological target: 192C4 (influenza A H1N1 A/Brisbane/59/2007)
[10] = biological target: 145C9 (influenza A H1N1 A/Brisbane/59/2007)
[11] = biological target: 187H10 (influenza A H1N1 A/Brisbane/59/2007)
[12] = biological target: 244B8 (influenza A H1N1 A/Brisbane/59/2007)
[13] = biological target: 220C9 (influenza A H1N1 A/Brisbane/59/2007)
[14] = biological target: 191C8 (influenza A H1N1 A/Brisbane/59/2007)
[15] = biological target: 188A8 (influenza A H1N1 A/Brisbane/59/2007)
[16] = biological target: 113E7 (influenza A H1N1 A/Brisbane/59/2007)
[17] = biological target: 13185 (influenza A H1N1 A/Brisbane/59/2007)
[18] = biological target: 271F10 (influenza A H1N1 A/Brisbane/59/2007)
[19] = biological target: 171E5 (influenza A H1N1 A/Brisbane/59/2007)
[20] = biological target: 176A5 (influenza A H1N1 A/Brisbane/59/2007)
[21] = biological target: 138F11 (influenza A H1N1 A/Brisbane/59/2007)
[22] = biological target: 214C4 (influenza A H1N1 A/Brisbane/59/2007)
[23] = biological target: 171F6 (influenza A H1N1 A/Brisbane/59/2007)
[24] = biological target: 162B3 (influenza A H1N1 A/Brisbane/59/2007)
[25] = biological target: 18987 (influenza A H1N1 A/Brisbane/59/2007)
[26] = biological target: 188C8 (influenza A H1N1 A/Brisbane/59/2007)
[27] = biological target: 266A11 (influenza A H1N1 A/Brisbane/59/2007)
[28] = biological target: 218G11 (influenza A H1N1 A/Brisbane/59/2007)
[29] = biological target: 145E7 (influenza A H1N1 A/Brisbane/59/2007)
[30] = biological target: 234C5 (influenza A H1N1 A/Brisbane/59/2007)
[31] = biological target: 123G2 (influenza A H1N1 A/Brisbane/59/2007)
[32] = biological target: 252B8 (influenza A H1N1 A/Brisbane/59/2007)
[33] = biological target: 264G4 (influenza A H1N1 A/Brisbane/59/2007)
[34] = biological target: 204C5 (influenza A H1N1 A/Brisbane/59/2007)
[35] = biological target: 137C11 (influenza A H1N1 A/Brisbane/59/2007)

B1: CR6261 (antibody, V domains shown)
VH: EVQLVESGAEVKKPGSSVKVSCKASGGPFRSYAISWVRQAPGQGPEWMGGIIPIFGTTKYAPKFQGRVTITADDFAGTVYMELSSLRSEDTAMYYCAKHMGYQVRETMDVWGKGTTVTVSS
VL: QSVLTQPPSVSAAPGQKVTISCSGSSSNIGNDYVSWYQQLPGTAPKLLIYDNNKRPSGIPDRFSGSKSGTSATLGITGLQTGDEANYYCATWDRRPTAYVVFGGGTKLTVLG
[1]
  CR6261 binding signal: 92900
[2]
  CR6261 binding signal: 506000
[3]
  CR6261 binding signal: 270000
[4]
  CR6261 binding signal: 180000
[5]
  CR6261 binding signal: 143000
[6]
  CR6261 binding signal: 456000
[7]
  CR6261 binding signal: 400000
[8]
  CR6261 binding signal: 212000
[9]
  CR6261 binding signal: 343000
[10]
  CR6261 binding signal: 182000
[11]
  CR6261 binding signal: 299000
[12]
  CR6261 binding signal: 274000
[13]
  CR6261 binding signal: 1.09e+06
[14]
  CR6261 binding signal: 309000
[15]
  CR6261 binding signal: 279000
[16]
  CR6261 binding signal: 966000
[17]
  CR6261 binding signal: 844000
[18]
  CR6261 binding signal: 315000
[19]
  CR6261 binding signal: 880000
[20]
  CR6261 binding signal: 193000
[21]
  CR6261 binding signal: 148000
[22]
  CR6261 binding signal: 302000
[23]
  CR6261 binding signal: 140000
[24]
  CR6261 binding signal: 280000
[25]
  CR6261 binding signal: 336000
[26]
  CR6261 binding signal: 113000
[27]
  CR6261 binding signal: 90600
[28]
  CR6261 binding signal: 959000
[29]
  CR6261 binding signal: 132000
[30]
  CR6261 binding signal: 278000
[31]
  CR6261 binding signal: 499000
[32]
  CR6261 binding signal: 285000
[33]
  CR6261 binding signal: 181000
[34]
  CR6261 binding signal: 833000
[35]
  CR6261 binding signal: 417000
